{
  "source": "paper PMC4115230",
  "about": "“Lipid–Protein Nanodiscs Offer New Perspectives for Structural and Functional Studies of Water-Soluble Membrane-Active Peptides” (Acta Naturae, 2014)",
  "key": {"[1]": {"molecular_target": "T1, Membrane scaffold protein (MSP): recombinant 44-243 fragment of human apolipoprotein A1 with an N-terminal … (human, Printed limits 44-243 are in mature numbering: mature apoA-I is precursor 25-267 (243 aa), so residue 243 is the C-terminus and the offset is +24. N-terminal His6 tag omitted. Each nanodisc contains t)", "T1 sequence (chain, as listed by the source)": "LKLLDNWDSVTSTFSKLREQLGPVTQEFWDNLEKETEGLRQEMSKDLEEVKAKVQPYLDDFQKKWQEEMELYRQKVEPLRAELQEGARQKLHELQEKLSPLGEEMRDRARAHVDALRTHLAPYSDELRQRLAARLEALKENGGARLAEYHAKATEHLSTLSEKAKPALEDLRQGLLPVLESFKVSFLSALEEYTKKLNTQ", "assay": "NMR titration; VSTx1 sample (20 μM by the legend of Fig. 2, 10 mM Tris-Ac, pH 7.0, no added salt) titrated with a lipid-free MSP solution (0.7 mM); 1D 1H-NMR signal intensity taken as free peptide; 40-45 °C; fits to partition equilibrium (eq. 1) and Langmuir isotherm (eq. 2); MSP concentration and n counted per two MSP molecules (MSP×2)", "details": "both partners purified"}, "[2]": {"molecular_target": "T1, Membrane scaffold protein (MSP): …", "assay": "NMR titration; VSTx1 sample (20 μM by the legend of Fig. 2, 10 mM Tris-Ac, pH 7.0, no added salt) titrated with a lipid-free MSP solution (0.7 mM); 1D 1H-NMR signal intensity taken as free peptide; 40-45 °C; fits to partition equilibrium (eq. 1) and Langmuir isotherm (eq. 2); MSP concentration and n counted per two MSP molecules (MSP×2)", "details": "both partners purified", "remark": "listed apart in the source"}},
  "data": [
    {"binder": "GSECGKFMWKCKNSNDCCKDLVCSSRWKWCVLASPF (additional N-terminal Gly-Ser residues left by the hydrolysis with thrombin; VSTx1 toxin from Grammostola spatulata spider venom, 34 AA, 4010 Da; three disulfide bonds (cysteine knot); The gene was built from synthetic oligonucleotides; also called VSTx1 toxin; recombinant VSTx1 analogue; not shown: thioredoxin (TRX), N-terminal, cleaved)", "values": [
      {"measurement": "Ka", "setting": "[1]", "value": "50000 ± 0.02", "unit": "M⁻¹"},
      {"measurement": "stoichiometry N", "setting": "[1]", "value": "3.2 ± 0.9"},
      {"measurement": "stoichiometry N", "setting": "[2]", "value": 1.6}
    ]}
  ]
}
